From publication PMC4446433, “Crystal structure of the Bloom's syndrome helicase indicates a role for the HRDC domain in conformational changes” (Nucleic Acids Research, 2015)

Molecular target: T1, BLM^636–1072, including the RecA domains (human, UniProt P54132 636-1072)
T1 construct: also called RecA core; D1/D2 domains
Test: BLI; biotinylated HRDC domain immobilised on streptavidin biosensors, RecA domains in solution, in the presence of ADP or ATP; 20-mM HEPES pH 7.5, 200-mM NaCl, 5% glycerol; 60-s windows; Octet RED384; apparent
Conditions: both partners purified

T1 sequence (P54132 636-1072): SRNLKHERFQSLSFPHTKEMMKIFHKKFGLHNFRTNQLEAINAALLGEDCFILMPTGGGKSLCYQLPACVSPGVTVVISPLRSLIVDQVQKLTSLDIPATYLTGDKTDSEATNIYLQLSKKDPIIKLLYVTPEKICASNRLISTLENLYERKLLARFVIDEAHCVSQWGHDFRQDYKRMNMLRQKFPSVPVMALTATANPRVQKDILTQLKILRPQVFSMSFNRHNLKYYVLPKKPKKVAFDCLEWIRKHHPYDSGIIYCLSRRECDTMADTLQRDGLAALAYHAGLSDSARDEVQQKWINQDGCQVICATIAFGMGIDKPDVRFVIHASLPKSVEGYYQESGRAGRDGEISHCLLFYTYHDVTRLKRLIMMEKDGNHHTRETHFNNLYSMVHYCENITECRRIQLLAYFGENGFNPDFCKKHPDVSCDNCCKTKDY

B1: BLM^1206–1298, encoding the HRDC domain (domain or fragment, human, UniProt P54132 1206-1298, looked up)
chain: AKVSQREEMVKKCLGELTEVCKSLGKVFGVHYFNIFNTVTLKKLAESLSSDPEVLLQIDGVTEDKLEKYGAEVISVLQKYSEWTSPAEDSSPG
modifications: biotin (on the C-terminal biotin acceptor sequence)
notes: The His10 tag is TEV-cleavable, but no cleavage is described; also called isolated HRDC domain; biotinylated HRDC domain; source: E. coli in TB medium with biotin, purified (Ni-IDA, S75 Superdex)
Q: Which Kd does the source give for B1 here?
A: 30 to 100 µM
